Data: article PMC5972661, “ECD1 functions as an RNA-editing trans-factor of rps14-149 in plastids and is required for early chloroplast development in seedlings”

T1: MBP-ECD1 (UniProt Q5G1T1 51-850)
T1 sequence: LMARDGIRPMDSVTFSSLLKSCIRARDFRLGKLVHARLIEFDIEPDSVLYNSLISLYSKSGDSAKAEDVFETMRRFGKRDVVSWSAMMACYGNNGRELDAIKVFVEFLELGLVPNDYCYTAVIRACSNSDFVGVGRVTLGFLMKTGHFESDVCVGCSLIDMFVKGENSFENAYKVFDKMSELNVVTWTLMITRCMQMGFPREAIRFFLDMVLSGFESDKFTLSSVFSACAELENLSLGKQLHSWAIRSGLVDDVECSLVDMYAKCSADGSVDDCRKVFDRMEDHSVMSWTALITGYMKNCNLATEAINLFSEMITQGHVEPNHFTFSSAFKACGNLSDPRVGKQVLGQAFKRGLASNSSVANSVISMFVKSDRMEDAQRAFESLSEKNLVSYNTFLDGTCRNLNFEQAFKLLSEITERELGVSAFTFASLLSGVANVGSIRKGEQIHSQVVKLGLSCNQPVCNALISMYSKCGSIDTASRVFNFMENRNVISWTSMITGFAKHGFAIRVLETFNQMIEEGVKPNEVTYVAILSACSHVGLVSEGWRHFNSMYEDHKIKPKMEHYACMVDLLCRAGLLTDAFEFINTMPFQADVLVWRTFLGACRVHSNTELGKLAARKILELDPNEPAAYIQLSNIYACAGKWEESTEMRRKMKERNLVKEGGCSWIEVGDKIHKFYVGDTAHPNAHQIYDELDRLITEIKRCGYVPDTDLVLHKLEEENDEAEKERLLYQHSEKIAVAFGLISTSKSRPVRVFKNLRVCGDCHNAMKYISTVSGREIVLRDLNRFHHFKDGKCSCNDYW


How the values were obtained:
[1] = target: T1, MBP-ECD1; assay: EMSA; 25, 50, 100 nM protein, 10 nM probe; LightShift Chemiluminescent RNA EMSA Kit (Thermo 20158), 20 min at 25 °C, 6% Tris-borate gel in 0.5x TBE; binding buffer, salt and pH not stated; details: protein: recombinant; tags: N-terminal MBP; primer adds HHHHHH-ENLYFQG (TEV site); label: 5' biotin; single strand
[2] = target: T1, MBP-ECD1; assay: EMSA; 25, 50, 100 nM protein, 10 nM probe; unlabeled same RNA (10-, 50-, 100-fold) used as competitor confirmed specificity; LightShift Chemiluminescent RNA EMSA Kit (Thermo 20158), 20 min at 25 °C, 6% Tris-borate gel in 0.5x TBE; binding buffer, salt and pH not stated; details: protein: recombinant; tags: N-terminal MBP; primer adds HHHHHH-ENLYFQG (TEV site); label: 5' biotin; single strand

Row | Binder | binding result [1] | binding result [2]
1 | AAAUAUCAUUUGAUUCGUCGAUCCUCAAAAAAG (ssRNA) [rps14-80] | no binding | 
2 | GAAAAUUCAUGGAAAAUUACAAUCCCCACCGCG (ssRNA) [rps14-149] |  | binds
